Consider eleven molecules from patent publication US20220017612A1 (TILOS THERAPEUTICS, published 2022).

Assay [1] concerns the target T1, human LAP-TGFβ1 overexpressed on cells (human, UniProt P01137 30-390).
T1 construct: HT1080 or P3U1 cells overexpressing wild-type human LAP-TGFβ1; also called HT1080-huB1; HT1080-hβ1
Nature of the assay: flow cytometry; black bar HT1080-huB1, grey bar HT1080. The procedure: First, the ability of 22F9H0L0, HILO, H2L0, H3L0, H4L0, H5L0, H0L1, H1L1, H2L1, H3L1, H4L1, H5L1, H0L2, H1L2, H2L2, H3L3, H4L2, and H5L2 to bind to HT1080 cells overexpressing human TGFβ1 was tested by flow cytometry. HT1080 cells over-expressing human LAP-TGFβ1 were placed in a round-bottom 96-well plate at density of 40,000 cells/well. The cells were washed with FACS buffer (25 mM HEPES, 2 mM EDTA, 2% fetal bovine serum in Hank's Balanced Salt Solution). 50 μL of 1:200 diluted TruStain Human FcX (BioLegend) was added to each well, followed by 50 μL of 100 ng/μL of humanized 22F9 construct. The antibody was allowed to bind for 20 minutes. The cells were washed twice with FACS buffer. The cells were labeled for 15 minutes with Alexa647-anti Human IgG (Jackson Immunoresearch), washed twice with FACS buffer, and analyzed by flow cytometry.
(In general: In flow cytometry, cells or beads pass a laser one at a time.)

In assay [2] the target is T2, fusion protein of a human IgG1 Fc domain and human LAP-TGFβ1 (human, UniProt P01137 30-390).
T2 construct: printed both as Fc-huB1 and LAP-TGFβ-Fc; also called Fc-huB1; Fc-human LAP
Nature of the assay: BLI, antibody on tip, 1:1 model. The procedure: (§1) Binding to human TGFβ1 of a subset of candidates was also tested by bio-layer interferometry (Octet). A streptavidin coated tip was equilibrated for 60 seconds in binding buffer (10 mM sodium phosphate, 150 mM sodium chloride, 1% bovine serum albumin, 0.05% sodium azide). The tip was then dipped in 10 μg/mL biotinylated antibody in binding buffer. After 15 seconds, the tip was washed in binding buffer for 60 seconds, and then dipped in 0-24 nM Fc-human LAP. Analyte association was measured for 5 minutes. The tip was transferred to binding buffer alone, and analyte dissociation was measured for 5 minutes. The association and dissociation data were fit to a 1:1 binding model.

The target in assay [3] is T2, fusion protein of a human IgG1 Fc …. Nature of the assay: BLI, signal change on binding. As for the experimental part: as §1
For orientation: BLI is a label-free optical method that tracks binding on a fibre tip over time.

Positions count from the first letter of the chain named.

T1 sequence (P01137 30-390): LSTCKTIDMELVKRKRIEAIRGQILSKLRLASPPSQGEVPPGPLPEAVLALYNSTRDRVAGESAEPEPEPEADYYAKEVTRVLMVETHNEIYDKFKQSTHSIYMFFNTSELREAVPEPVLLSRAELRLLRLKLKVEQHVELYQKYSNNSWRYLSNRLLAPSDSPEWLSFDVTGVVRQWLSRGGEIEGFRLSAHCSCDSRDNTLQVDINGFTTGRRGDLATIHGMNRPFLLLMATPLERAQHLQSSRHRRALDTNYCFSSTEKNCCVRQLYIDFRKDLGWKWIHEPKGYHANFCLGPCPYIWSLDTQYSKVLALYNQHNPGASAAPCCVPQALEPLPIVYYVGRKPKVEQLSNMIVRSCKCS
T2 sequence (P01137 30-390 limits assumed): as the sequence (P01137 30-390) above

B1: H0L0 (antibody, human IgG1, kappa, V domains shown)
VH: QVQLVQSGAEVKKPGASVKVSCKASGYTFTSYWMHWVRQAPGQGLEWMGMIHPNSGSTNYNEKFKSRVTMTRDTSTSTVYMELSSLRSEDTAVYYCARYDYDGFFDVWGQGTLVTVSS
VL: DIQLTQSPSSLSASVGDRVTITCRASKSVSTSGYSYMHWYQQKPGKAPKLLIYLASNLESGVPSRFSGSGSGTDFTLTISSLQPEDFATYYCQHSRELPYTFGGGTKVEIKR
notes: also called 22F9_H0L0
Consider B1, for which the binding result in assay [1] is recorded as “no binding (tested: single dose, 50 µL of 100 ng/µL)”.

B2: H0L2 (antibody, human IgG1, kappa, V domains shown)
VH: B1 VH
VL: B1 VL with A13V, V19A, A47P, D74H, L82V, V108L
notes: also called 22F9_H0L2
On to B2, for which, in assay [1], the binding result is on record as “no binding (tested: single dose, 50 µL of 100 ng/µL)”.

B3: H1L2 (antibody, human IgG1, kappa, V domains shown)
VH: B1 VH with M48I, R72V, R98Y
VL: B1 VL with A13V, V19A, A47P, D74H, L82V, V108L
notes: also called 22F9_H1L2
Regarding B3, the binding result in assay [1] is “no binding (tested: single dose, 50 µL of 100 ng/µL)”.

B4: H0L1 (antibody, human IgG1, kappa, V domains shown)
VH: B1 VH
VL: B1 VL with A47P, D74H
notes: also called 22F9_H0L1
On to B4, for which the binding result in assay [1] is “no binding (tested: single dose, 50 µL of 100 ng/µL)”.

B5: 22F9_H5L0 (antibody, human IgG1, kappa)
heavy: not shown
light: DIQLTQSPSSLSASVGDRVTITCRASKSVSTSGYSYMHWYQQKPGKAPKLLIYLASNLESGVPSRFSGSGSGTDFTLTISSLQPEDFATYYCQHSRELPYTFGGGTKVEIKRTVAAPSVFIFPPSDEQLKSGTASVVCLLNNFYPREAKVQWKVDNALQSGNSQESVTEQDSKDSTYSLSSTLTLSKADYEKHKVYACEVTHQGLSSPVTKSFNRGEC
A word on the Kd: it is the concentration at which binding is half-saturated. High values mean lower affinity, low ones higher affinity. The term koff denotes the rate constant with which the complex falls apart. The kon is the second-order rate constant of association. A high value points to fast association. As for B5, in assay [2], the Kd is 3.35 nM, the koff amounted to 0.0017 s⁻¹ and the kon was 510000 M⁻¹ s⁻¹. Moreover, the “Binding (nm)” value in assay [3] turned out to be 0.13 nm.

B6: 22F9_H4L0 (antibody, human IgG1, kappa)
heavy: not shown
light: B5 light
In assay [2], B6 showed a Kd of 1.63 nM, an off-rate constant (koff) of 0.00132 s⁻¹ and a kon of 810000 M⁻¹ s⁻¹. In assay [3], the “Binding (nm)” value is 0.057 nm.

B7: 22F9_H3L1 (antibody, human IgG1, kappa, V domains shown)
VH: B1 VH with M48I, M70L, R72V, T74K, T76S, V79A, R98Y
VL: B1 VL with A47P, D74H
With B7, the binding result in assay [1] was “binds”.

B8: 22F9_H2L0 (antibody, human IgG1, kappa, V domains shown)
VH: B1 VH with M48I, M70L, R72V, V79A, R98Y
VL: B1 VL
As to B8, the binding result in assay [1] is listed as “binds”.

B9: 22F9_H4L2 (antibody, human IgG1, kappa)
heavy: not shown
light: B5 light with A13V, V19A, A47P, D74H, L82V, V108L
In assay [2], B9 displayed a Kd of 2.3 nM, a koff of 0.00137 s⁻¹ and a kon of 598000 M⁻¹ s⁻¹. For the same molecule, the “Binding (nm)” value in assay [3] came out at 0.07 nm.

B10: 22F9_H3L0 (antibody, human IgG1, kappa, V domains shown)
VH: B1 VH with M48I, M70L, R72V, T74K, T76S, V79A, R98Y
VL: B1 VL
Turning to B10, in assay [2], the affinity, expressed as Kd, was 2.75 nM; the koff stood at 0.00214 s⁻¹; the kon is 778000 M⁻¹ s⁻¹. The “Binding (nm)” value in assay [3] is 0.023 nm.

B11: 22F9_H2L1 (antibody, human IgG1, kappa, V domains shown)
VH: B1 VH with M48I, M70L, R72V, V79A, R98Y
VL: B1 VL with A47P, D74H
As for B11, the binding result in assay [1] is listed as “binds”.
